Experimental findings from paper PMC6566107, “Molecular Analysis of Protein-Protein Interactions in the Ethylene Pathway in the Different Ethylene Receptor Subfamilies” (Frontiers in Plant Science, 2019) are described below.

For assay [1], the target named is T1, Arabidopsis thaliana ethylene receptor ETR1 (AtETR1), full-length, type-I subfamily (Arabidopsis thaliana, UniProt P49333 1-738, Alexa Fluor 488 succinimidyl-ester label where used as the labeled partner in MST).
T1 construct: ETR1, Arabidopsis thaliana, full-length receptor; source: recombinant, expressed and purified as described in Milić et al., 2018, in FosCholine-16
T1 sequence (looked up): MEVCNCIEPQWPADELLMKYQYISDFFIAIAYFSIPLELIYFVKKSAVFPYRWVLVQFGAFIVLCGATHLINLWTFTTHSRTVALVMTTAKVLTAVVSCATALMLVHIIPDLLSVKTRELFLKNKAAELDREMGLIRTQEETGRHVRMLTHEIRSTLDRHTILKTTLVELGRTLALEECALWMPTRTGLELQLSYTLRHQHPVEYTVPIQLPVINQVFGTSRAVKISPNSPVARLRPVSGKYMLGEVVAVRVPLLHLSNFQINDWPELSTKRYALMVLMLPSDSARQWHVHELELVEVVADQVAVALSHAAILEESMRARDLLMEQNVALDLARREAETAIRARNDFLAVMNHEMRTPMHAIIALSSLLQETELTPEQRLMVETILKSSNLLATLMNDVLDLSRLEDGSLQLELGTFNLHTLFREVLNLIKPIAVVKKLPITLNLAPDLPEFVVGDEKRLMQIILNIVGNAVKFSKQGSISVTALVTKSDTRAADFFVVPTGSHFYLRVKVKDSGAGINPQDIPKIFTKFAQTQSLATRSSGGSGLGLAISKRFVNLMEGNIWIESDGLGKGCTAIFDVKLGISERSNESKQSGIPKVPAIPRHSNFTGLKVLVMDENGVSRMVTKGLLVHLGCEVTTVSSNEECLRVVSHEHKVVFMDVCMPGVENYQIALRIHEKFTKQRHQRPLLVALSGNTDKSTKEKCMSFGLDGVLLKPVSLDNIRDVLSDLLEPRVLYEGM
Put plainly: MST; 40 nM Alexa Fluor 488-labeled receptor (AtETR1 or AtETR2); unlabeled AtETR1 or AtETR2 (4 µM to 0.49 nM) or ETR1-TM C4SC6S (16 µM to 0.98 nM) titrated; 0.0075% (w/v) FosCholine-16; 60% MST power; 1:1 model. Particulars: both partners purified.

The target in assay [2] is T2, Arabidopsis thaliana ethylene receptor ETR2 (AtETR2), full-length, type-II subfamily (Arabidopsis thaliana, UniProt Q0WPQ2 1-773, Alexa Fluor 488 succinimidyl-ester label where used as the labeled partner in MST).
T2 construct: ETR2, Arabidopsis thaliana, UniProt Q0WPQ2, full-length, codon optimized cDNA according to NCBI NM_113216.3; The thrombin site of pGEX-4T-1 was changed to a TEV site (ENLYFQG); No cleavage is described; The purified protein runs at an apparent 120 kDa, so GST is probably still attached; The same construct was used with and without the Alexa Fluor 488 label; source: E. coli C43 (DE3), solubilised …
T2 sequence (looked up): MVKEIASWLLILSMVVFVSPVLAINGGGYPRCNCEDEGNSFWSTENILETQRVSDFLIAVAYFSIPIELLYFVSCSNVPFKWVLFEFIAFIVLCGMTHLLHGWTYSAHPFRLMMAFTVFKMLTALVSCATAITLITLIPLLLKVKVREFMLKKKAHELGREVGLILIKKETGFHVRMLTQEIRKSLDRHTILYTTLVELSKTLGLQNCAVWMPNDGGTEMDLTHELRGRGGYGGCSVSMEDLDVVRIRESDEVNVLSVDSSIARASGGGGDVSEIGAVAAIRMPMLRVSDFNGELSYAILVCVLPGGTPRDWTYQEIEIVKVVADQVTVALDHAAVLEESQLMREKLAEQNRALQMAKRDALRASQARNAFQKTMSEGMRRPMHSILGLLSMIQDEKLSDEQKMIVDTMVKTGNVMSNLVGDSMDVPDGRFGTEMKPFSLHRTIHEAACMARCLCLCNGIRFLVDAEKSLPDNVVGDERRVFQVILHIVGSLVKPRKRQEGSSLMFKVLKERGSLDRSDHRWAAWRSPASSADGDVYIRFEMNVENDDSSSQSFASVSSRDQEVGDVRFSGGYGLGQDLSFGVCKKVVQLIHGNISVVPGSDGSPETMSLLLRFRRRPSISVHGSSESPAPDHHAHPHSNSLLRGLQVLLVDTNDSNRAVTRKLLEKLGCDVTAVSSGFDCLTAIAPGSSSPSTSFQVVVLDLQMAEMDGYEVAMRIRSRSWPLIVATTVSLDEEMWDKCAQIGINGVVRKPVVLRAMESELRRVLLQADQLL
The description is as above. Conditions: both partners purified.

B1: Isolated transmembrane domain of AtETR1 (aa 1-157) with C4S and C6S (domain or fragment, Arabidopsis thaliana, UniProt P49333 1-157, looked up)
chain: MEVSNSIEPQWPADELLMKYQYISDFFIAIAYFSIPLELIYFVKKSAVFPYRWVLVQFGAFIVLCGATHLINLWTFTTHSRTVALVMTTAKVLTAVVSCATALMLVHIIPDLLSVKTRELFLKNKAAELDREMGLIRTQEETGRHVRMLTHEIRSTL
notes: ETR1, Arabidopsis thaliana, transmembrane domain, residues 1-157, cysteines 4 and 6 changed to serine; also called ETR1-TM^C4SC6S; AtETR1-TM^C4SC6S
Consider B1, for which the binding result in assay [1] and in assay [2] was “binds” throughout.
